According to PMC3902948:

Experiments:
Prp43-Strep = Prp43-Strep (Saccharomyces cerevisiae S288c, UniProt P53131 1-767); assay: UV cross-linking
[1] = molecular target: Prp43-Strep;Strep-Ntr1(1-120) (Saccharomyces cerevisiae …, UniProt P53131;Q06411 1-767;1-120, |); assay: UV cross-linking
Chain of Prp43-Strep;Strep-Ntr1(1-120) (P53131 whole entry, chain 1 of 2): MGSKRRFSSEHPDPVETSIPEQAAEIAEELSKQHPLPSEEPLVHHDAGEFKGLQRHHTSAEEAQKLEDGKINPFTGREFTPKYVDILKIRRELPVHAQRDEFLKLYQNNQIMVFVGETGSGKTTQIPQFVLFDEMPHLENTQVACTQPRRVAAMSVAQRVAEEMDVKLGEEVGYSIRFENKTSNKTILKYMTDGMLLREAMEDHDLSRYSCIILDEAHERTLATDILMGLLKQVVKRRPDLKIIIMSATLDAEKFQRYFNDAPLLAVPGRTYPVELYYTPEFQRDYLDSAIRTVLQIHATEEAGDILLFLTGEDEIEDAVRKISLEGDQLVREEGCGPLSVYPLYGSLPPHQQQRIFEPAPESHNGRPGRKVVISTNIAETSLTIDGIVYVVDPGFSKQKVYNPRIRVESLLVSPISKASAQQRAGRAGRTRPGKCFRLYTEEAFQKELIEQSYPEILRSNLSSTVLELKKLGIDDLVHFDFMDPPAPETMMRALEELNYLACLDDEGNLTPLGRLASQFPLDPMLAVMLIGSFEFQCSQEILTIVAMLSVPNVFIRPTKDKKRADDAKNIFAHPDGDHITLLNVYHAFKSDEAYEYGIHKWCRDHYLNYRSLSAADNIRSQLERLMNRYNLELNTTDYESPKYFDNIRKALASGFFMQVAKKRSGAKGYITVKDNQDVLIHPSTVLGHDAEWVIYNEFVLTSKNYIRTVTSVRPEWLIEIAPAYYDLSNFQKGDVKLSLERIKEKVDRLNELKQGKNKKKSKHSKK
Chain of Prp43-Strep;Strep-Ntr1(1-120) (Q06411 1-120, chain 2 of 2): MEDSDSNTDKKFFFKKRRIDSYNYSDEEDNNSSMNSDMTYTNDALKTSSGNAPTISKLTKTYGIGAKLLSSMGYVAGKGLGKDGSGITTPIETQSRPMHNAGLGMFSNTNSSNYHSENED

Chain of Prp43-Strep (P53131 whole entry): as the sequence (P53131 whole entry, chain 1 of 2) above

B1: 21-mer ssRNA (ssRNA)
RNA: GACGGGCUGUUGGUGAUGGAC
Prp43-Strep
  binding result: binds
[1]
  binding result: binds
